# Assay results: patent US20220402990
# What was measured:
# [1] = molecular target: Activatable cytokine construct IFN-α-2b 1490DNI-hIgG4
# [2] = molecular target: Activatable cytokine construct IFN-α2b-1204DNIdl-hIgG4
# [3] = molecular target: IFN-α2b-1204DNIdl-hIgG4 with five amino acid residues added to the linker
protein,measurement,setting,value
recombinant human matriptase (MT-SP1) (protein) VVGGTDADEGEWPWQVSLHALGQGHICGASLISPNWLVSAAHCYIDDRGFRYSDPTQWTAFLGLHDQSQRSAPGVQERRLKRIISHPFFNDFTFDYDIALLELEKPAEYSSMVRPICLPDASHVFPAGKAIWVTGWGHTQYGGTGALILQKGEIRVINQTTCENLLPQQITPRMMCVGFLSGGVDSCQGDSGGPLSSVEADGRIFQAGVVSWGDGCAQRNKPGVYTRLPLFRDWIKENTGV,"protease cleavage, gel electrophoresis",[1],The results suggest that the proteases were effective at cleaving the cleavable moieties in the activatable cytokine constructs
same,"protease cleavage, gel electrophoresis",[2],The results suggest that the proteases were effective at cleaving the cleavable moieties in the activatable cytokine constructs
same,"protease cleavage, gel electrophoresis",[3],The results suggest that the proteases were effective at cleaving the cleavable moieties in the activatable cytokine constructs
